Key:
[1] = target: SUMO-ARVCF peptide fusion protein (yeast); test: SPR; linker mutant immobilised on Ni-NTA chip, SUMO-peptide fusion as analyte
[2] = target: SUMO-δ-catenin peptide fusion protein (yeast); test: binding analysis of purified protein; reference ARVCF peptide
[3] = target: SUMO-δ-catenin peptide fusion protein (yeast); test: ratio of SPR Kd values, reference ARVCF peptide
[4] = target: SUMO-ARVCF peptide fusion protein (yeast); test: SPR (BIAcore 2000); clamp immobilised on Ni-NTA chip, SUMO-peptide fusion as analyte
[5] = target: SUMO-ARVCF peptide fusion protein (yeast); test: SPR; clamp immobilised on Ni-NTA chip, SUMO-peptide fusion as analyte
[6] = target: SUMO-ARVCF peptide fusion protein, Ala substitution at position -4 (yeast); test: SPR, Ala scanning; reference wild-type ARVCF peptide
[7] = target: SUMO-ARVCF peptide fusion protein, Ala substitution at position -6 (yeast); test: as above
[8] = target: SUMO-ARVCF peptide fusion protein, Ala substitution at position -7 (yeast); test: as above
[9] = target: SUMO-ARVCF peptide fusion protein, Ala substitution at position -5 (yeast); test: as above
[10] = target: SUMO-ARVCF peptide fusion protein (yeast); test: SPR; linker mutant against ePDZ-b with the GGSGG linker

Chain of ePDZ-b linker mutant GGSG (Q96RT1 other isoform, or with tags, fused parts or gaps, change not shown): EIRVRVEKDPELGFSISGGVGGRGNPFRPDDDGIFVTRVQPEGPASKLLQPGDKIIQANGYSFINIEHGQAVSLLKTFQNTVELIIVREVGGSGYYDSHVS
Chain of ePDZ-a linker mutant GGS (Q96RT1 other isoform, or with tags, fused parts or gaps, change not shown): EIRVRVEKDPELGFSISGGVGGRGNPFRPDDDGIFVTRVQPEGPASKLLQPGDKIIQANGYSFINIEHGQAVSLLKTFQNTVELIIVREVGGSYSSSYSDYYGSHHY
Chain of ePDZ-b linker mutant GGS (Q96RT1 other isoform, or with tags, fused parts or gaps, change not shown): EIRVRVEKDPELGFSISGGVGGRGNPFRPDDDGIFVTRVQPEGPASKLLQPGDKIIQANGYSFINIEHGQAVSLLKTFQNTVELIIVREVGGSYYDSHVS
Chain of ePDZ-a linker mutant GG (Q96RT1 other isoform, or with tags, fused parts or gaps, change not shown): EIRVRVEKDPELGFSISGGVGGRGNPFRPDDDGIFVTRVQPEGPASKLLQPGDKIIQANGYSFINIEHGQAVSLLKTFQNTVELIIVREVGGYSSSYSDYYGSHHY
Chain of ePDZ-a linker mutant GGSG (Q96RT1 other isoform, or with tags, fused parts or gaps, change not shown): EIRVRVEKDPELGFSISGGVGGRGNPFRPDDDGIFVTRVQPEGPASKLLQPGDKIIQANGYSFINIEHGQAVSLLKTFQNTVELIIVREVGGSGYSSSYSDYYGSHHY

“ePDZ-a linker mutant GG (from UniProt Q96RT1 1321-1410) (designed binder)” showed a Kd [1] of 311 nM.
“ePDZ-a linker mutant GGSG (from UniProt Q96RT1 1321-1410) (designed binder)” showed a Kd [1] of 117 nM.
In the case of “ePDZ-b (from UniProt Q96RT1 1321-1410) (designed binder)”, the fold discrimination between the two targets [2] is reported as 200 fold, the Specificity Index (Kd for δ-catenin / Kd for ARVCF) [3] is reported as > 446 and the Kd [4] is reported as 56 nM. For the same substance, the koff [4] was 0.011 s⁻¹, the kon [4] was 190000 M⁻¹ s⁻¹ and the Kd [5] was 56 nM. For the same substance, the fold decrease in binding affinity against the wild-type ARVCF peptide [6] was > 5 fold, the ΔΔG upon Ala substitution of the ARVCF peptide [6] was > 3 kcal/mol and the fold decrease in binding affinity against the wild-type ARVCF peptide [7] was > 5 fold. The ΔΔG upon Ala substitution of the ARVCF peptide [7] was > 1 kcal/mol, the fold decrease in binding affinity against the wild-type ARVCF peptide [8] was > 5 fold and the ΔΔG upon Ala substitution of the ARVCF peptide [8] was > 1 kcal/mol. The fold decrease in binding affinity against the wild-type ARVCF peptide [9] was > 5 fold and the ΔΔG upon Ala substitution of the ARVCF peptide [9] was > 1 kcal/mol.
Substance “ePDZ-b linker mutant GGSG (from UniProt Q96RT1 1321-1410) (designed binder)” has a fold reduction of binding affinity against the original linker [10] of 8 fold and a Kd [1] of 412 nM.
In the case of “ePDZ-b linker mutant GGS (from UniProt Q96RT1 1321-1410) (designed binder)”, the Kd [1] is reported as > 5000 nM.
“ePDZ-a linker mutant GGS (from UniProt Q96RT1 1321-1410) (designed binder)” was tested, and the Kd [1] was 134 nM.
